{"source": "paper PMC6775479", "key": {"[1]": {"molecular_target": "HPV16 L1 protein (human papillomavirus type 16) (UniProt P03101)", "sequence (P03101 whole entry)": "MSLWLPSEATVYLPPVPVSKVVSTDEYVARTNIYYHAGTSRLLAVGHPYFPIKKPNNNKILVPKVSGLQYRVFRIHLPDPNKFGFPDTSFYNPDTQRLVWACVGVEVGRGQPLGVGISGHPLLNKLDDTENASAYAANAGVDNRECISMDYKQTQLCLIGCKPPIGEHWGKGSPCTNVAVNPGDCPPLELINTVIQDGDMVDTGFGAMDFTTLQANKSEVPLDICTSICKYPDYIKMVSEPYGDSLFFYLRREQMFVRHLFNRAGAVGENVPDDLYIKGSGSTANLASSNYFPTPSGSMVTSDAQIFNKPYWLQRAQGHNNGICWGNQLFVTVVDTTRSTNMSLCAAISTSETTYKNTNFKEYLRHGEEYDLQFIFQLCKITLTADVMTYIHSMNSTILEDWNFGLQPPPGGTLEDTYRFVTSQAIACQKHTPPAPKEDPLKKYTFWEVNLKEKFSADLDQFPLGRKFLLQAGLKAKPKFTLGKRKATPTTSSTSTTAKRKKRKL"}, "[2]": {"molecular_target": "L1-I peptide (HPV16 L1 residues 474-488) (human papillomavirus type 16)", "assay": "ITC; peptide (1 mM) in 50 mM phosphate buffer pH 7.4 in the sample cell; 3HP-β-LG or β-LG (50 μM) in the titration needle; 18°C, 2 μl injections"}, "[3]": {"molecular_target": "L1-II peptide (HPV16 L1 residues 493-505) (human papillomavirus type 16)", "assay": "ITC; peptide (1 mM) in 50 mM phosphate buffer pH 7.4 in the sample cell; 3HP-β-LG or β-LG (50 μM) in the titration needle; 18°C, 2 μl injections"}}}
{"substance": "3-hydroxyphthalic anhydride (3HP)-modified bovine beta-lactoglobulin (from UniProt P02754 17-178)", "values": [{"measurement": "inhibition of HPV16 PsV entry into HeLa cells (luciferase), IC50", "setting": "[1]", "result": 0.59, "unit": "µg/mL"}, {"measurement": "Ka", "setting": "[2]", "result": 231000, "unit": "M⁻¹"}, {"measurement": "Ka", "setting": "[3]", "result": 104000, "unit": "M⁻¹"}]}
